Reference: patent US20130071835A1, “Qualitative and Quantitative Analytical Method for Analyzing the Activity Type of an Enzyme that is Activated by Proteolysis” (Nanoenteck, Inc., priority 2010, published 2013)

Target: T1, Lp-PLA2 (Homo sapiens, UniProt Q13093)
T1 construct: purchased diaDexus, USA
T1 sequence (Q13093 22-441): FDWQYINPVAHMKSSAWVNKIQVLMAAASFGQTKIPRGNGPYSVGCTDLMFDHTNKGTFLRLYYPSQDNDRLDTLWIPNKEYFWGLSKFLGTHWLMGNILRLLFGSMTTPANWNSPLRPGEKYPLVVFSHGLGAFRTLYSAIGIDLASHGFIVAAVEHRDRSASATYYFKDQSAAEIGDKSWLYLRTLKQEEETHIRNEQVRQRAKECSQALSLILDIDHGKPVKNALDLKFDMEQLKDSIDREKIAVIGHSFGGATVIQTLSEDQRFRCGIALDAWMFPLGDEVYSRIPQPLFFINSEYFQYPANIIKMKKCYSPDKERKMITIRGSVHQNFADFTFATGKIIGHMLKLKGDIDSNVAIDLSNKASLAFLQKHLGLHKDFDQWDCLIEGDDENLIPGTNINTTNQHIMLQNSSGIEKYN
Test: Competition binding of Lp-PLA2 to Apo C-III-coated microplate (ELISA, absorbance)
Description: After Apo C-III was diluted with 100 mM carbonate buffer (pH 9.5) at a concentration of 2 μg/ml, the Apo C-III solution (100 μl) was added to each well in a microplate, which was coated at 37° C. incubator for 2 hrs. And then, the Apo C-III solution was removed from each well and 200 μl PBS supplemented with 1% BSA was added to each well. After incubation at 37° C. incubator, the solution was removed from each well that was then dried.
Tween-20 (0.05%)-containing PBS buffer (pH 7.4) was used for dilution, reaction and washing buffer in the experiment. Each 100 μl Lp-PLA2 (1 μg/ml) was added to Apo C-III-coated microplate well (FIG. 2a). Or, Lp-PLA2 and Apo C-III was diluted at a final concentration of 1 μg/ml and 0.5 μg/ml, respectively, and the solution (100 μl) was added to Apo C-III-coated microplate well (FIG. 2b). Each reaction preparation was incubated at 37° C. incubator for 50 min, and then removed from the well, followed by washing 2 times. Anti-Lp-PLA2 antibody solution (100 μl) diluted to 5 μg/ml was added to the washed well and incubated at 37° C. incubator for 50 min. The solution was removed and each well was washed 2 times. […] After 100 μl H2SO4 (2 N) was added to each washed well, the absorbance was measured. The measurement of absorbance utilized TECAN Infinit M200: wavelength measurement, 450 nm; and calibration wavelength, 620 nm. […]

## Apolipoprotein C-III [Apo C-III]
Lp-PLA2 1 μg/ml plus free Apo C-III 0.5 μg/ml added to Apo C-III-coated microplate well, Lp-PLA2 alone gave 0.208
  Final signal intensity (absorbance: Ab 620 nm), mean: 0.130
Lp-PLA2 1 μg/ml plus free Apo C-III 0.5 μg/ml, Apo C-III-coated microplate
  reduction of signal compared with sample without free Apo C-III: 37.6%
